Paper PMC7515730
Substitutions are numbered along the chain they refer to.

T1: CSTF2 (CstF-64) RRM wild type (Homo sapiens, UniProt P33240 1-107)
T1 sequence: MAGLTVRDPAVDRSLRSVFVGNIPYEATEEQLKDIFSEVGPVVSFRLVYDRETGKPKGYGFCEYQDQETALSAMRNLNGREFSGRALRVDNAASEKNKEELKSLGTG

T2: CSTF2 D50A RRM (Homo sapiens, UniProt P33240 1-107, D50A)
T2 sequence: T1 sequence with D50A


Tests used:
[1] = target: T1, CSTF2 (CstF-64) RRM wild type; assay: ITC
[2] = target: T2, CSTF2 D50A RRM; assay: ITC
[3] = target: T1, CSTF2 (CstF-64) RRM wild type; assay: fluorescence polarization
[4] = target: T2, CSTF2 D50A RRM; assay: fluorescence polarization

Binder	Kd [1]	Kd [2]	Kd [3]	Kd [4]
AUUUUAUGUUUCAGGU (ssRNA) [SVL RNA, unlabeled]	1520 ± 170 nM	698 ± 60 nM		
GUGUGUGUGUGUGUGU (ssRNA) [(GU)8 RNA, 3'-fluorescein]			260 ± 20 nM	170 ± 10 nM
AUUUUAUGUUUCAGGU (ssRNA) [SVL RNA, 3'-fluorescein]			1450 ± 70 nM	
